Assay results reported in paper PMC11648839.

Columns and labels:
[1] = target: PmoA-eGFP (subunit A of the particulate methane monooxygenase enzyme complex, eGFP at the C-terminus) (UniProt Q607G3); test: FRET or BRET; FRET-FLIM in living tobacco leaf epidermal cells; eGFP fusion as donor, mRFP fusion as acceptor; two-photon excitation at 920 nm, TCSPC; lifetime of the donor with acceptor compared with donor alone; region of interest on the nucleus
[2] = target: eGFP-PmoA (subunit A of the particulate methane monooxygenase enzyme complex, eGFP at the N-terminus) (UniProt Q607G3); test: as above

Row | average eGFP (donor) fluorescence lifetime with acceptor [1] | Δ (reduction of donor lifetime against donor alone) [1] | average eGFP (donor) fluorescence lifetime with acceptor [2] | Δ (reduction of donor lifetime against donor alone) [2] | Substance
1 | 2.2 ns | 0.2 ns | 2.2 ns | 0.2 ns | mRFP-PmoC (subunit C of the particulate methane monooxygenase enzyme complex, mRFP at the N-terminus) (natural protein)
2 | 2.2 ns | 0.2 ns | – | – | PmoC-mRFP (subunit C of the particulate methane monooxygenase enzyme complex, mRFP at the C-terminus) (natural protein)
